Earlier results on one substance are cited in PMC4186963.

pKd: −log10 of the molar value.

In the series the target is CD28 (Homo sapiens) (UniProt P10747).

As for CD80 (from UniProt P33681), the pKd (in general, the negative decadic logarithm of the Kd, by convention in mol/L) is 6.70.
